From article PMC5776092

Biological target: cysteine deficient variant of the human neuropeptide Y receptor type 2 (Y2R), refolded and reconstituted into DMPC/DHPC-c7 bicelles (human) (UniProt P49146)

apparent GTPγS binding rate k of Gαi1 (intrinsic W211 tryptophan fluorescence, nucleotide exchange), Y2R in isotropic bicelles activated with 10 fold excess of NPY, 16°C: 0.06 s⁻¹
apparent GTPγS binding rate k of Gαi1 (intrinsic W211 tryptophan fluorescence, nucleotide exchange), Y2R in non-isotropic bicelles activated with 10 fold excess of NPY, 16°C: 0.045 s⁻¹
Substance: pre-assembled Gαi1β1γ1 heterotrimer (from UniProt P10824 1-354; P62871 1-340; P02698 1-74) (complex)
